Here are results for 2 molecules from patent publication US20250368742A1 (D2M BIOTHERAPEUTICS, published 2025).

Substitutions are numbered along the chain they refer to.

For assay [1], the target named is T1, MICA008-ECD-HISAvi (human).
T1 construct: Two sources under one name in the two kinetic assays; also called MICA008 polypeptide
T1 chain: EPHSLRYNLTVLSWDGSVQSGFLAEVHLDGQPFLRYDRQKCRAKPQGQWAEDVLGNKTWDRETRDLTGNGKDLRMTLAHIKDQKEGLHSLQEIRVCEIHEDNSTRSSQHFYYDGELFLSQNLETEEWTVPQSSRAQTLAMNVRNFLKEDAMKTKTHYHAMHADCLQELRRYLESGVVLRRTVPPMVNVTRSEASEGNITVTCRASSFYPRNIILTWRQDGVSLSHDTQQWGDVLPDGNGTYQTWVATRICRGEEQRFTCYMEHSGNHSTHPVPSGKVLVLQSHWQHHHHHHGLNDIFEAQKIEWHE
Nature of the assay: SPR (Carterra); antibody captured by anti-human Fc, monomeric ECD antigen injected.
Procedure: (§1) The dissociation kinetics were monitored for approximately 10 minutes. The chip surface was regenerated between binding cycles with 10 mM glycine HCl, pH 1.7. Binding kinetics were analyzed using software supplied by the manufacturer.

The target in assay [2] is T2, MICA002-ECD-HISAvi (human, UniProt Q29983 24-308).
T2 construct: also called MICA002 polypeptide
T2 chain: T1 chain with W14G, Y36C, V129M, E173K, S206G, R210W, I213T, T215S, R251Q
The description is as above.
Procedure: as §1

Assay [3] has as its target T3, MICA004-ECD-HISAvi (human).
T3 construct: also called MICA004 polypeptide
T3 chain: T1 chain with L122V, G175S, T181R, I213T, R251Q
The assay is described as above.
Procedure: as §1

The target of assay [4] is T4, MICB005-ECD-HISAvi (human, UniProt Q29980 24-309).
T4 construct: Two sources under one name in the two kinetic assays; also called MICB005 polypeptide
T4 sequence: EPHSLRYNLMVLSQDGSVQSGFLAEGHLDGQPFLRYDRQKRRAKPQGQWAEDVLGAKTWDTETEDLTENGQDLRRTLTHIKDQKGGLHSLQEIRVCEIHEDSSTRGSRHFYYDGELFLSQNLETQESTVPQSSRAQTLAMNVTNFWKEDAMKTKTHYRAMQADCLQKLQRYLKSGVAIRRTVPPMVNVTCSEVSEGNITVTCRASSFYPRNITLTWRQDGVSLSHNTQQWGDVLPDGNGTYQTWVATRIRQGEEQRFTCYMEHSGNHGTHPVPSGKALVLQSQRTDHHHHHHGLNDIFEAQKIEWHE
The description is as above.
Procedure: as §1

In assay [5] the target is T5, human MICA004 on cells (human).
T5 construct: whole, on cells; also called CHO-MICA004; C1R-MICA004
Nature of the assay: flow cytometry, CHO-MICA004 cells. A general note: Flow cytometry measures light scatter and fluorescence of single cells or particles in a stream.

In assay [6] the target is T6, human MICA002 on cells (human).
T6 chain: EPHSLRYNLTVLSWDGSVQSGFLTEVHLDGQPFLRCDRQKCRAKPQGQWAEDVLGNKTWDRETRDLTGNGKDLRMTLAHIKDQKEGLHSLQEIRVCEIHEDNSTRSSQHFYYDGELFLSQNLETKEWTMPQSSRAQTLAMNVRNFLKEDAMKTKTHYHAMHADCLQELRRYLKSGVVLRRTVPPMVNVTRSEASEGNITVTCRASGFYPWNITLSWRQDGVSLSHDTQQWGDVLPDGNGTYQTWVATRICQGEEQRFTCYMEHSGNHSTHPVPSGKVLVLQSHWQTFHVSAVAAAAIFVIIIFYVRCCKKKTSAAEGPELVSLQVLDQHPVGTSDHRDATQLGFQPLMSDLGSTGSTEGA
Nature of the assay: flow cytometry, CHO-MICA002 cells.

In assay [7] the target is T7, human MICB005 on cells (human).
T7 construct: whole, on cells; also called CHO-MICB005; C1R-MICB005
Nature of the assay: flow cytometry, CHO-MICB005 cells.

Assay [8] has as its target T6, human MICA002 on cells. The assay can be described thus: flow cytometry, CHO-MICA002 cells.

A word on the Kd: it is a measure of binding affinity in units of concentration. For orientation: EC50 means the concentration needed to bring the measured effect to its halfway point. A higher EC50 goes with weaker potency. For orientation: EC50 (read off the curve) means the midpoint of the concentration-response curve. Read a low EC50 (read off the curve) as greater potency.

B1: D2M001-001 (antibody, V domains shown)
VH: QVQLVQSGAEVKKPGSSVKVSCKASGYTFSHHSISWVRQAPGQGLEWIGGIYPGKIKTNYAQKFQGRATLTADKSTSTAYMELSSLRSEDTAVYYCATLYGNYEAYWGQGTLVTVSS
VL: DIQMTQSPSSLSASVGDRVTITCRASENIYGALNWYQQKPGKSPKLLIYGTTSLQSGVPSRFSGSGSGRDYTLTISSLQPEDFATYYCQNVLTTPPWTFGGGTKVEIK
notes: only the CDRs are tied to the name in the text; copies: 2 + 2
Take B1: the dissociation constant (Kd) in assay [1] turned out to be 255 nM; in assay [2], 61.4 nM; in assay [3], 156 nM; in assay [4], 158 nM. In addition, the EC50 in assay [5] is 7.12 µg/mL; in assay [6], 1.26 µg/mL; in assay [7], 2.77 µg/mL.

B2: h36B3GA (antibody, V domains shown)
VH: QVQLVQSGAEVKKPGASVKVSCKASGYAFTKYNFYWVRQAPGQGLEWIGYIDPYFGGTVYNQKFKGKATLTVDKSTSTAYMELRSLRSDDTAVYYCATTDAYSLFTYWGQGTLVTVSS
VL: DIQMTQSPSSLSASVGDRVTITCRASQDISNYLNWYQQTPGKAVKLLIYYTSRLHSGVPSRFSGSGSGTDYTLTISSLQPEDIATYFCLQGNTLPFTFGQGTKLEIK
notes: humanized #36 variant; the text writes h36B3(GA); copies: 2 + 2
Consider B2, for which the half-maximal effective concentration (EC50 (read off the curve)) in assay [8] is ~0.6 µg/mL.
